The text below walks through data of US20100317830A1, “BACE455, AN ALTERNATIVE SPLICE VARIANT OF THE HUMAN BETA-SECRETASE” (EXONHIT THERAPEUTICS SA, priority 2003, published 2010).

The test system of assay [1] is endogenously expressed APP isoforms in SH-SY5Y cells. As to the kind of experiment: Western blot of C99 fragment generation in transfected SH-SY5Y cells. The assay is classed as cell-based, human. The conditions noted are these: BACE455 SH-SY5Y cells. The method, then:
SH-SY5Y cells for transfection were grown to 80% confluence in Dulbecco's modified Eagle's medium (DMEM) with 10% fetal bovine serum. Transfections were performed using LipofectAmine Plus (Gibco-BRL) with […] per 10*10<6>cells. Three days posttransfection, cells were passaged into medium containing G418 at a concentration of 400 μg/ml. After twenty days growth in selective medium, individual clones were selected and plated into each well of one 96 well plate containing growth medium plus G418. Clones were expanded from the 96 well plate to a 24 well plate and then to a 6 well plate. Clones which had lost initial neuronal-like morphology were not amplified. BACE455 or BACE501 expression in selected clones was assayed by Western Blotting and immunohistochemical analysis using Cterminal-specific antibody.
Cells were harvested 3 days after plating. Cells were washed twice with PBS and lysed in 1 ml CellLytic solution (Sigma) plus protease inhibitors cocktail (Roche Diagnostics) for 15 min. […] Following electrotransfer of the separated polypeptides to PVDF membranes, APP and C99 proteolytic fragment were detected with C-terminal-specific rabbit anti-APP antibody (Serotec, UK) at 1/500 in PBS-Tween 20 0.1%, and the antibody-antigen complexes were visualized using alkaline phosphatase conjugated goat anti-rabbit antibodies (1/5000). […]
(In general: A western blot detects proteins with antibodies after separation by electrophoresis.)

Assay [2] concerns endogenously expressed APP in SH-SY5Y cells. The assay is described as follows: Aβ1-40 double antibody sandwich ELISA on conditioned medium of transfected SH-SY5Y cells. It counts as cell-based, human. The conditions noted are these: Gleevec treatment of BACE455 cells. The method, then: Cells were harvested 3 days after plating and processed for Western Blotting experiments as described above.
Cell culture supernatants harvested 72 hours after plating were analyzed in a standard double antibody isoform-specific Aβ1-40 ELISA (BioSource International) as follows. […] The detecting antibody is specific for Abeta 1-40 and the conjugated secondary antibody is an anti-rabbit IgG conjugated to horseradish peroxydase. Synthetic human Aβ1-40 standard peptides are serially diluted in the supplied sample diluent for the generation of standard curves.
Human Abeta 1-40 standards were added after washing the plate, as well as 100 μl/well of sample, e.g., conditioned medium of transfected cells. The plate was incubated at 4[deg.] C. overnight. The next day, after washing the plate four times, 100 μl/well rabbit detection antibody was added and incubated for 2 hours on an orbital plate shaker at 20 degree C. […] 100 μl/well stop solution was added and absorbance of each well was read at 450 nm within two hours, with a solution of 100 μl each of chromogen and stop solution as the blank. […] The samples with absorbance values falling within the standard curve were extrapolated (by comparison to the values obtained for the A-β40 and A-β42 standard peptides analyzed on the same plate) from the standard curves and expressed in pg/ml culture medium.
(In general: In an ELISA, binding on a coated surface is turned into a signal by an enzyme label.)

The target of the next assay is T1, BACE501 (Homo sapiens, UniProt P56817).
T1 construct: full length cDNA of BACE501 and BACE455 in TOPO TA vector were subcloned into pcDNA3; expressed in transfected cells; Triton X100 membrane extract
The assay is described as follows: beta-secretase fluorogenic assay (Substrate V) with membrane extracts of HEK293-BACE501 cells plus protease inhibitors. Particulars: for BACE501 activity (percentage of activity +−SEM): compared to mock transfected control; for % Inhibition of BACE activity by Inhibitor III: BACE501, 100 μM; for Percentage of inhibition by various inhibitors (mean percentage of cleavage inhibition), BACE501 / inhibition at 100 µM: BACE501 cell extract; for Percentage of inhibition by various inhibitors (mean percentage of cleavage inhibition), BACE501 / effect on substrate cleavage activity of BACE501 extracts (in words) / inhibition at 100 µM: inhibitor 100 μM; for inhibition at 100 µM: read-out: Percentage of inhibition by various inhibitors (mean percentage of cleavage inhibition), BACE501. It counts as biochemical. The method, then:
(§1) Cells were harvested and centrifuged at 1,500 rpm for 5 minutes to remove the medium. The cell pellets were washed once with PBS. To further compare BACE455 activity with that of BACE501, an in vitro assay was developed based on quenched fluorogenic substrate (Substrate V, Calbiochem) containing the Swedish mutation KM->NL in APP. Sequence of the peptide was: MCA-[…](DNP)-CONH2 (SEQ ID NO: 32), containing the Swedish APP mutation (in boldface), γ-amino-4-methyl coumarin (MCA) as the fluorophore and dinotrophenol (DNP) as the quencher. When cell lysates of BACE455 and BACE501 expressing cells are incubated with the fluorogenic Substrate V, upon cleavage by the protease, the fluorophore is separated from the quenching group, restoring the full fluorescence yield of the donor. (Ermolief et al., Biochemistry 39: 12450-12456 (2000); Ellerby et al. J. Neurosci. 17: 6165-6178 (1997); Capel et al., J Biol. Chem. 277: 5637-43 (2002)).
(§2) Mock transfected HEK293 and HEK293-BACE455 and -BACE501cells were harvested by scraping in ice-cold 20 mM Tris/150 mM NaCl, pH 7.5 plus Complete Protease Inhibitor Cocktail (Roche Diagnostics). Cell were lysed by repeated freeze-thawing and a postnuclear fraction was generated after centrifugation at 500 g for 10 min, Pellets were resuspended in membrane extraction buffer (20 mM MES/1% Triton X100) containing protease inhibitor cocktail and incubated on ice for 30 minutes. The assay was carried out in black 96 well plates (ATGC) in a volume of 200 μl of the membrane preparation diluted in reaction buffer (25 mM MES/25 mM Sodium Acetate/25 mM Tris, pH 4.4) containing 15 μM peptide Substrate V. These components were equilibrated to 37[deg.] C. for various times and the reaction initiated by addition of substrate. Excitation was performed at 320 nm and the reaction kinetics were monitored by measuring the fluorescence emission at 420 nm. To test the effect of pH, lysed cells were resuspended in 25 mM MES/25 mM Sodium Acetate/25 mM Tris adjusted at pH values ranging from 4.4 to 8 and then incubations were performed as above. Controls included purified recombinant human BACE501 protein (R&D Systems), or substrate alone and background fluorescence is subtracted to recorded BACE isoforms activities.
(§3) Protease inhibitors were added to 100 μl reaction buffer (25 mM MES/25 mM Sodium Acetate/25 mM Tris, pH 4.4) at a final concentration of 100 μM. […] Membrane preparations were obtained as in Example 4 and incubated with the inhibitors for 10 min at room temperature. Reaction was then started by adding 100 μl of reaction buffer containing the substrate (15 μM final concentration) and monitored as described in Example 4. For the dose-response experiment of FIG. 3, Inhibitor III was assayed at various concentrations ranging from 100 μM to 100 nM
(§4) Membrane preparations were obtained as in Example 4 and incubated in assay buffer (25 mM MES/25 mM Sodium Acetate/25 mM Tris) adjusted to final pH ranging from 4.4 to 8, in the presence or absence of BACE inhibitor III (100 μM final concentration). Reaction was started by adding 100 μl of reaction buffer (pH ranging from 4.4 to 8) containing the substrate (15 μM final concentration) and monitored as described in Example 4. We determined in these conditions the percentage of inhibition of BACE by Inhibitor III.

For the next assay, the target named is T2, BACE455 (Homo sapiens, UniProt P56817, DEL190-235).
T2 construct: full length cDNA of BACE501 and BACE455 in TOPO TA vector were subcloned into pcDNA3; expressed in transfected cells; Triton X100 membrane extract
As to the kind of experiment: beta-secretase fluorogenic assay (Substrate V) with membrane extracts of HEK293-BACE455 cells plus protease inhibitors. The conditions noted are these: for BACE455 activity (percentage of activity +−SEM): compared to mock transfected control; for % Inhibition of BACE activity by Inhibitor III: BACE455, 100 μM; for Percentage of BACE455 inhibition by various inhibitors (mean percentage of cleavage inhibition) / inhibition at 100 µM: BACE455 cell extract; for Percentage of BACE455 inhibition by various inhibitors (mean percentage of cleavage inhibition) / effect on substrate cleavage activity of BACE455 extracts (in words) / inhibition at 100 µM: inhibitor 100 μM; for inhibition at 100 µM: read-out: Percentage of BACE455 inhibition by various inhibitors (mean percentage of cleavage inhibition). The assay is classed as biochemical. The method, then: as §1, §2, §3, §4

Counter-ions that a name gives are not always drawn. Square brackets hold non-standard residues; d marks the D form. Peptide text beside a SMILES is read from it. * marks the point of attachment. Sta = CC(C)C[C@H](N)[C@@H](O)CC(=O)O; Isovaleryl = CC(C)CC(=O)*

T1 sequence (P56817 46-501): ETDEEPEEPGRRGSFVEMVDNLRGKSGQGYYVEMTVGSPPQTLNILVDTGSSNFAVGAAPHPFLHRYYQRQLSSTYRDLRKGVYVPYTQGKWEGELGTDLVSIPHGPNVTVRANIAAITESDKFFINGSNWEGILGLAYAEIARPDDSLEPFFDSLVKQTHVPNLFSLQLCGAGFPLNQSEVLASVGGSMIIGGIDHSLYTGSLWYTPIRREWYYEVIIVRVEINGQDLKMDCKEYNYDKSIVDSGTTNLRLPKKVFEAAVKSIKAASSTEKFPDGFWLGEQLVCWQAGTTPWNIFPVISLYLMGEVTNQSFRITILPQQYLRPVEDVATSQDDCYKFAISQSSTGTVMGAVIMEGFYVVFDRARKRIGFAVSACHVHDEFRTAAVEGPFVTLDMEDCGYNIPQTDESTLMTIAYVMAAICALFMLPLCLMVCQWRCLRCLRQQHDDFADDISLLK
T2 sequence (P56817 with tags, fused parts or gaps DEL190-235): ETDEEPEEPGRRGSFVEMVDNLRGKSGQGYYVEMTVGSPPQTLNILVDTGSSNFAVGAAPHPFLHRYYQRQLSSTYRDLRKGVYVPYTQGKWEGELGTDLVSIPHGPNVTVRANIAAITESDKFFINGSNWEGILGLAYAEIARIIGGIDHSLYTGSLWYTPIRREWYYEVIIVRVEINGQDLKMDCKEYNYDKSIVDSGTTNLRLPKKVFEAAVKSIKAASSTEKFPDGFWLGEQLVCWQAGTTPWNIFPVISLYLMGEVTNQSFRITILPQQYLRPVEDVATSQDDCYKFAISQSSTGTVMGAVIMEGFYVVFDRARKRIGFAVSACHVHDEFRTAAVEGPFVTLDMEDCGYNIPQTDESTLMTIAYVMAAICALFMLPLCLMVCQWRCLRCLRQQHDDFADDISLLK

As to `Cc1ccc(NC(=O)c2ccc(CN3CCN(C)CC3)cc2)cc1Nc1nccc(-c2cccnc2)n1` [Gleevec, imatinib mesylate], in assay [1] (10 μM for the last 24 hours), the “generation of C99 peptide” value was “strongly reduced”. For the same compound, the “Aβ1-40 release (in words)” value in assay [2] is listed as “strongly reduced”.

With “H-Glu-Val-Asn-Statine-Val-Ala-Glu-Phe-NH2 [Inhibitor III]”, the “BACE501 activity (percentage of activity +−SEM)” value is 85.15+−2.93% with BACE501 (1 μM inhibitor) and 57.6+−3.12% with BACE501 (10 μM inhibitor). Moreover, the “% Inhibition of BACE activity by Inhibitor III” value in the assay with BACE501 (pH 4.4) was determined as 117.54%; with BACE501 (pH 6.0), 13.23%; in the assay with BACE501 (pH 8.0), 17.63%; with BACE455 (pH 4.4) it was 104.16%; with BACE455 (pH 6.0), 15.97%; with BACE455 (pH 8.0), 22.10%. For the same compound, the “Percentage of inhibition by various inhibitors (mean percentage of cleavage inhibition), BACE501” value with BACE501 (pH 4.4) was determined as 117.54%. In addition, the “effect on substrate cleavage activity of BACE501 extracts (in words)” value in the assay with BACE501 was “completely abolished”. In addition, the results for the “BACE455 activity (percentage of activity +−SEM)” value in the assay with BACE455 (1 μM inhibitor) and with BACE455 (10 μM inhibitor) were 57.52+−9.08% and 36.04+−4.13%, respectively. Besides, in the assay with BACE455 (pH 4.4), the “Percentage of BACE455 inhibition by various inhibitors (mean percentage of cleavage inhibition)” value is listed as 104.16%. In addition, the “effect on substrate cleavage activity of BACE455 extracts (in words)” value with BACE455 is listed as “completely abolished”.

As for `C[C@H]1CCC/C=C/[C@@H]2C[C@H](O)C[C@H]2[C@H](O)/C=C/C(=O)O1` [BFA, brefeldin A], the “generation of C99” value in assay [1] (10 μg/ml during the last 8 hours) was “reduced generation of C99”.

Turning to `CC(C)CCNC(=O)[C@H](CC(C)C)NC(=O)[C@H]1O[C@@H]1C(=O)O` [E-64c, E64c], the “Percentage of inhibition by various inhibitors (mean percentage of cleavage inhibition), BACE501” value on BACE501 (pH 4.4) worked out at 13.14%. Also, the “Percentage of BACE455 inhibition by various inhibitors (mean percentage of cleavage inhibition)” value on BACE455 (pH 4.4) was determined as 12.23%.

In general, inhibition refers to how much of the control response was suppressed. Regarding `CC(C)CC(=O)N[C@H](C(=O)N[C@H](C(=O)N[C@@H](CC(C)C)[C@@H](O)CC(=O)N[C@@H](C)C(=O)N[C@@H](CC(C)C)[C@@H](O)CC(=O)O)C(C)C)C(C)C` [Pepstatin A] (Isovaleryl-VV[Sta]A[Sta]-OH), the inhibition at 100 µM on BACE501 (pH 4.4) worked out at 13.1%; at BACE455 (pH 4.4), 14.4%. For the same compound, the “effect on substrate cleavage activity of BACE501 extracts (in words)” value at BACE501 is recorded as “very weakly sensitive”. Also, the “effect on substrate cleavage activity of BACE455 extracts (in words)” value at BACE455 was “very weakly sensitive”.

As for `CC(=O)N[C@@H](CC(C)C)C(=O)N[C@@H](CC(C)C)C(=O)N[C@H](C=O)CCCNC(=N)N` [Leupeptin], the inhibition at 100 µM at BACE501 (pH 4.4) was determined as 8.03%; at BACE455 (pH 4.4), 17.3%.

Consider `CC(C)C[C@H](NC(=O)[C@@H](NC(=O)N[C@@H](Cc1ccccc1)C(=O)O)[C@@H]1CCN=C(N)N1)C(=O)N[C@H](C=O)Cc1ccccc1` [Chymostatin], for which the figures for the inhibition at 100 µM on BACE501 (pH 4.4) and at BACE455 (pH 4.4) were 20.4% and 25.9%, respectively.
